Read-outs that look alike come from different tables or passages of the source.

The target of data set [1] is U1 snRNP ΔU1-C, biotinylated on SmF and Cy5-labelled on the U1 snRNA (CoSMoS form) (human) (UniProt P08621). The experiment in a line: colocalization single molecule spectroscopy.
For data set [2] the target is unchanged. The experiment in a line: colocalization single molecule spectroscopy. This is another data set of the same source.
The target in data set [3] is T1, minimal U1 snRNP without U1-C (CoSMoS);U1-C zinc finger (U1-C_61) (human;human, UniProt P08621;P62316;P62318;P14678;P62306;P62304;P62308;P09234 …, internal_change|). The experiment in a line: single-molecule CoSMoS.
In data set [4] the target is T1, minimal U1 snRNP without U1-C …. The experiment in a line: single-molecule CoSMoS. This is another data set of the same source.
For data set [5], the target named is minimal U1 snRNP with U1-C (SPR) (human, UniProt P08621;P62316;P62318;P14678;P62306;P62304;P62308;P09234 …, internal_change). The experiment in a line: SPR. A general note: SPR reads the build-up and loss of mass on a sensor chip optically.

U1-C_61 (zinc finger region of U1-C), sequence (P09234 1-61): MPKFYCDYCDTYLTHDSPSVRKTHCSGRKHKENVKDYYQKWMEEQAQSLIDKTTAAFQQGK

As to “U1-C_61 (zinc finger region of U1-C) (from UniProt P09234 1-61) (domain or fragment)”, the EC50 – broadly, the concentration giving half of the maximal effect – in data set [1] is 1.3 nM; in data set [2], 1.8 nM.

For the molecule ACACAGAGUAAGUUAACA (ssRNA) [9bp-1A], in data set [3], binding was put at a Kd of 1.2 nM. On to ACACAGGUAAGUUAACA (ssRNA) [9bp], for which the dissociation constant Kd – broadly, a measure of binding affinity in units of concentration – in data set [4] is about 0.12 nM. Turning to CAGGUAAGUAU (ssRNA) [11bp], the affinity in data set [5], expressed as Kd, was 0.203 nM.

In data set [5], CAGAGUAAGUAU (ssRNA) [11bp-1A] registered a Kd of 2.7 nM.

Source of the values: publication PMC11467380.
